Source: patent US20190040153A1 (Novartis, published 2019)

T1: human β-klotho (soluble, recombinant) (human, UniProt Q86Z14 53-997, limits assumed)
T1 construct: also called recombinant human β-klotho; beta-klotho
T1 sequence: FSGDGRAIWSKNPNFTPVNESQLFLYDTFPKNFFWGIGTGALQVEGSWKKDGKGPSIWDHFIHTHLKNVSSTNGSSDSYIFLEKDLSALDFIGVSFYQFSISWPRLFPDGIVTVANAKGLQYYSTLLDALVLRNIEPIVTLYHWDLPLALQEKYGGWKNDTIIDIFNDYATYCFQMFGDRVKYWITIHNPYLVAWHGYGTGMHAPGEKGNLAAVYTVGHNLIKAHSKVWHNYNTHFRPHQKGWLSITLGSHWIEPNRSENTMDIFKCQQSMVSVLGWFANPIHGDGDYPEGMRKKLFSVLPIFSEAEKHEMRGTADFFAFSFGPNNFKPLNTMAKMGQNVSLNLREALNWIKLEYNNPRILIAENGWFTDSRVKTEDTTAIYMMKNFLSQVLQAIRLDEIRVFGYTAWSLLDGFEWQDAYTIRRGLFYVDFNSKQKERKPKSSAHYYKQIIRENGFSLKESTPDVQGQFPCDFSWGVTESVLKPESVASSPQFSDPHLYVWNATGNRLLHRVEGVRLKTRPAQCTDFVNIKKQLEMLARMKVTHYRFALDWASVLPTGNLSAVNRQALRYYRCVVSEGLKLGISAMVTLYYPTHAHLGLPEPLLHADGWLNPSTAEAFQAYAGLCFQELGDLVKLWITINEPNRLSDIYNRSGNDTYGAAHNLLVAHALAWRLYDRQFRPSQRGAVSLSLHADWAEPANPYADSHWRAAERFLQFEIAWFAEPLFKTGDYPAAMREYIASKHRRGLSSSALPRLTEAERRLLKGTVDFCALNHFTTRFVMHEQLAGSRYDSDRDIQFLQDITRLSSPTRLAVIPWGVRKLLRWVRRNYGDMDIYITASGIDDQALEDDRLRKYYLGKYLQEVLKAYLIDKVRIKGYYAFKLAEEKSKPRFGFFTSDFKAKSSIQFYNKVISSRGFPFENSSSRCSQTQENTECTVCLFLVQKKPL


Experiments:
[1] = biological target: human FGFR1c_β-klotho receptor complex (on HEK293 cells) (human, UniProt P11362 22-822); assay: cell-based or functional assay
[2] = biological target: cynomolgus monkey FGFR1c_β-klotho receptor complex (on HEK293 cells) (cynomolgus monkey; human, UniProt A0A2K5WB58 1-1044; P11362 22-822); assay: cell-based or functional assay
[3] = biological target: T1, human β-klotho (soluble, recombinant); assay: Biacore kinetics; IgG captured by anti-human Fc, human β-klotho as analyte
Protocol: Binding affinities of antibodies were determined using Biacore kinetic analysis. A Series S Sensor Chip CMS (GE Healthcare, Cat. No. BR-1005-30) was equilibrated to ambient temperature for approximately 30 minutes The system was primed with 1×HBS-EP+ buffer (10×soln, GE Healthcare, Cat. No. BR-1006-69) and the chip was loaded into the Biacore instrument. The chip was normalized using BIAnormalizing (GE Healthcare, Cat. No. BR-1006-51) solution and the chip was conditioned with 50 mM NaOH using a flow rate of 60 μL/minute for all flow paths. The 30 second injection was repeated three times with a wait time of 60 seconds. 10 mM sodium acetate pH 5.0 was injected at 60 μL/minute for 120 seconds and repeated twice. After a new cycle was started for immobilizing the anti-human IgG Fc using the Human Antibody Capture Kit (GE Healthcare, Cat. No. BR-1008-39). The anti-human Fc Ab was diluted to 50 μg/mL in immobilization buffer (10 mM sodium acetate pH 5.0). The amine coupling reagents were mixed 1:1 (EDC and NHS) and injected for 7 minutes at 10 μL/minute. Then anti-human Fc Ab was injected for 6 minutes at 10 μL/minute. Lastly ethanolamine was injected for 7 minutes at 10 μL/minute with a wait time of 60 seconds. This should result in immobilization of approximately 8000-10000 RU. Then we performed test injections for an Rmax of 10 RUs (capture levels=˜28 RUs) for NOV004, NOV005 and NOV006. This was done using a flow rate of […] and a 3 M MgCl₂ regeneration buffer. Each flow cell was evaluated each time due to changes in chip surface, affinity of IgGs, IgG protein quality and differences in dilutions. We started with an IgG concentration of 0.5 ug/mL and increased (or decreased) the concentration depending on the results from the sample injections. […] After capturing parameters were determined for each antibody in each flow cell, human β-klotho at various concentrations was passed over the chip and kₐ (1/Ms), kd (1/s), KD (M), and Rmax (RU) were calculated by Biacore kinetics.
In vitro work was done to show the binding and cell activity properties of NOV004, NOV005, and NOV006. […]

cynomolgus monkey FGFR1c_β-klotho receptor complex (on HEK293 cells), sequence (chain, as listed by the source, chain 1 of 2): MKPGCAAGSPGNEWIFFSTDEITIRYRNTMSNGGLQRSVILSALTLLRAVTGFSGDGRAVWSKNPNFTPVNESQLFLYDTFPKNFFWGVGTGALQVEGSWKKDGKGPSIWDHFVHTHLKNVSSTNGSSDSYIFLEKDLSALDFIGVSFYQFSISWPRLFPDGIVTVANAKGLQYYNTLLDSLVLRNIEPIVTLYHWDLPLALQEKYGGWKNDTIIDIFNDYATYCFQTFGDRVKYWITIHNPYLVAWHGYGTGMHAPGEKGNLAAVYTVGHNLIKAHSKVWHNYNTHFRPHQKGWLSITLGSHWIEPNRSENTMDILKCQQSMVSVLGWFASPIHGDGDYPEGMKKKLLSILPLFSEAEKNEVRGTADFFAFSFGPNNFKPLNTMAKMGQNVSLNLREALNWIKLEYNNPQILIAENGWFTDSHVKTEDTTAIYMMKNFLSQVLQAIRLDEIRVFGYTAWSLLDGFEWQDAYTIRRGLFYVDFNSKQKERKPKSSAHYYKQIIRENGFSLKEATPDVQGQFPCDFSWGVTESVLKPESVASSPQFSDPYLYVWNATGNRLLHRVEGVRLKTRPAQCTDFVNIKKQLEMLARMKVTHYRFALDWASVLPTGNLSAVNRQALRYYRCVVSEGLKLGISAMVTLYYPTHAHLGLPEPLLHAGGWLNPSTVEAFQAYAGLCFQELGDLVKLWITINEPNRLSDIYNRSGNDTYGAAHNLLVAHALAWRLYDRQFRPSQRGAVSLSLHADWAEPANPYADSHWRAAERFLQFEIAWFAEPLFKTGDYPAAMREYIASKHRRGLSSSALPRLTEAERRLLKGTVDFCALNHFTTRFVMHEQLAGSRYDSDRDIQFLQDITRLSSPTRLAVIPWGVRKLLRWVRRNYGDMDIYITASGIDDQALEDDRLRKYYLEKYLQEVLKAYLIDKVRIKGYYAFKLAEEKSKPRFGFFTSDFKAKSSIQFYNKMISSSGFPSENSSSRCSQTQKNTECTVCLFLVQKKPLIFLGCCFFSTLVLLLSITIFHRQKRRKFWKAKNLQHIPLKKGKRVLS
cynomolgus monkey FGFR1c_β-klotho receptor complex (on HEK293 cells), sequence (P11362 22-822, chain 2 of 2): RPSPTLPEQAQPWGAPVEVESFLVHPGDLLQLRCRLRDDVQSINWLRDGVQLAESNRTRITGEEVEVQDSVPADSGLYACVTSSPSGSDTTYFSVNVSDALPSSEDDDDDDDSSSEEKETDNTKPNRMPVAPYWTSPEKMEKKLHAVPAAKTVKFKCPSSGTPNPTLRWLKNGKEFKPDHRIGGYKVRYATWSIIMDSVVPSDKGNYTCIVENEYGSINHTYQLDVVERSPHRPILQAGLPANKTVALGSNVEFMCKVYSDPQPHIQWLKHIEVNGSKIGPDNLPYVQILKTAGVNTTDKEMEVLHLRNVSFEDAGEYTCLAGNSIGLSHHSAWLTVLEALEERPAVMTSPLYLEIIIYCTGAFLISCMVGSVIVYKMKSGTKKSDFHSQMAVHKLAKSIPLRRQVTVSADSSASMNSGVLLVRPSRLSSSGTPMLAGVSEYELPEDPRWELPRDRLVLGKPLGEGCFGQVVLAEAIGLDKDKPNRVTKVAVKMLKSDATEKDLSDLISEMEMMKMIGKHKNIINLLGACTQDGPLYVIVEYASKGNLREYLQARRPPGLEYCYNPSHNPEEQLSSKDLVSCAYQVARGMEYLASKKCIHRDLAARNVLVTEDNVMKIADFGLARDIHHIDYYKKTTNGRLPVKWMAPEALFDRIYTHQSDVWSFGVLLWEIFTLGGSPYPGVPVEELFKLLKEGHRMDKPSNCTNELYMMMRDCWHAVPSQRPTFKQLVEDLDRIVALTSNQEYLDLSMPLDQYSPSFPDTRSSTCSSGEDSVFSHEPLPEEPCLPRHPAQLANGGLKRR
human FGFR1c_β-klotho receptor complex (on HEK293 cells), sequence (chain, as listed by the source, chain 1 of 2): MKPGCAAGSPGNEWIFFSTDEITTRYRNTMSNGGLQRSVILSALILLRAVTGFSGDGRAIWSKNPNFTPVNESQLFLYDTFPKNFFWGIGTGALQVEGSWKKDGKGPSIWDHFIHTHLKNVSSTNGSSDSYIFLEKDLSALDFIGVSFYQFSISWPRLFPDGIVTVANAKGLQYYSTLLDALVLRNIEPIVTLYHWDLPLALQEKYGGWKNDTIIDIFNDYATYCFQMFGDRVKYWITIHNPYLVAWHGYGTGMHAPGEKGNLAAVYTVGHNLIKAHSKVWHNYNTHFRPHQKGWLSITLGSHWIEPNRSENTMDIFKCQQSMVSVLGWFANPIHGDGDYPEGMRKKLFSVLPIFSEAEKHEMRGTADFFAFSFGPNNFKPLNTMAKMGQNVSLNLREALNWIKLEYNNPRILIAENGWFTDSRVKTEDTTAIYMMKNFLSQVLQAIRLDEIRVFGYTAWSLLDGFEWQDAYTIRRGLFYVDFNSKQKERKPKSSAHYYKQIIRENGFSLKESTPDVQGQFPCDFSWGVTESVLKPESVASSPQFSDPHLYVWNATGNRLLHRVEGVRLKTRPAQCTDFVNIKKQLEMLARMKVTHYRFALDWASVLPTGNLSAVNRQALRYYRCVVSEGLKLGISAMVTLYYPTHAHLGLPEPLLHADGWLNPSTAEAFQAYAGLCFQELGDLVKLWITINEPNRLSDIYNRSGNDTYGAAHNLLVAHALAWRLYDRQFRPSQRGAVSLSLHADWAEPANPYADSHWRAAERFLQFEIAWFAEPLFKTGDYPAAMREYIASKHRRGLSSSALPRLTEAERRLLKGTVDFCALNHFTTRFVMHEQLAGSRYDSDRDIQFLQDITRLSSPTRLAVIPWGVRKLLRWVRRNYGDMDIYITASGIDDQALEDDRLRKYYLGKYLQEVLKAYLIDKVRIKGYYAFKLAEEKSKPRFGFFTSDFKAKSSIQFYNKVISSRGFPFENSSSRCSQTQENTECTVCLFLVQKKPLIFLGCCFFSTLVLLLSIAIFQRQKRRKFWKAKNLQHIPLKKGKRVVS
human FGFR1c_β-klotho receptor complex (on HEK293 cells), sequence (P11362 22-822, chain 2 of 2): as the sequence (P11362 22-822, chain 2 of 2) above

pERK activation EC50 [1] [nM]	pERK activation EC50 [2] [nM]	Kd [3] [nM]	Binder
~4	~18	~0.4	NOV006 (antibody, human IgG1, kappa, V domains shown, Humanized mAb derived from mouse hybridoma 127F19) VH: QVQLQESGPGLVKPSQTLSLTCTVSGYSITSGYTWHWIRQHPGKGLEWIGYIHYSVYTNYNPSLKSRVTISRDTSKNQFSLKLSSVTAADTAVYYCARRTTSLERYFDVWGQGTLVTVSS VL: EIVMTQSPATLSLSPGERATLSCRASQDISNYLNWYQQKPGQAPRLLIYYTSRLQSGIPARFSGSGSGADYTLTISSLQPEDFAVYFCQQGNTLPYTFGQGTKLEIKR
~3	~20	~0.3	NOV004 (antibody, human IgG1, kappa, V domains shown, Humanized mAb derived from mouse hybridoma 127F19) VH: EVQLVESGGGLVKPGGSLRLSCAVSGYSITSGYTWHWVRQAPGKGLEWLSYIHYSVYTNYNPSVKGRFTISRDTAKNSFYLQMNSLRAEDTAVYYCARRTTSLERYFDVWGQGTLVTVSS VL: DIQMTQSPSSLSASVGDRVTITCQASQDISNYLNWYQQKPGKAPKLLIYYTSRLQSGVPSRFTGSGSGADYTFTISSLQPEDIATYFCQQGNTLPYTFGQGTKLEIKR
~3	~16	~0.3	NOV005 (antibody, human IgG1, kappa, V domains shown, Humanized mAb derived from mouse hybridoma 127F19) VH: QVQLQESGPGLVKPSQTLSLTCTVSGYSITSGYTWHWIRQHPGKGLEWIGYIHYSVYTNYNPSLKSRVTISRDTSKNQFSLKLSSVTAADTAVYYCARRTTSLERYFDVWGQGTLVTVSS VL: DIQMTQSPSSLSASVGDRVTITCQASQDISNYLNWYQQKPGKAPKLLIYYTSRLQSGVPSRFSGSGSGADYTFTISSLQPEDIATYFCQQGNTLPYTFGQGTKLEIKR
